Assay results reported in IntAct's records for PubMed 22265973.

B1: Synaptotagmin-2 (Rattus norvegicus (Rat)), P29101 (parent)
chain: MRNIFKRNQEPIVAPATTTATMPLAPAAPADNSTESTGTGESQEDMFAKLKDKFFNEINKIPLPPWALIAMAVVAGLLLLTCCFCICKKCCCKKKKNKKEKGKGMKNAMNMKDMKGGQDDDDAETGLTEGEGEGEEEKEPENLGKLQFSLDYDFQANQLTVGVLQAAELPALDMGGTSDPYVKVFLLPDKKKKYETKVHRKTLNPAFNETFTFKVPYQELGGKTLVMAIYDFDRFSKHDIIGEVKVPMNTVDLGQPIEEWRDLQGGEKEEPEKLGDICTSLRYVPTAGKLTVCILEAKNLKKMDVGGLSDPYVKIHLMQNGKRLKKKKTTVKKKTLNPYFNESFSFEIPFEQIQKVQVVVTVLDYDKLGKNEAIGKIFVGSNATGTELRHWSDMLANPRRPIAQWHSLKPEEEVDALLGKNK

Variants of: B1
Details: with bxb_clobo botB

Row | Variant | effect of a mutation on the interaction
1 | F54L | disrupting interaction

Variants of: B1
Details: with bxb_clobo botB
Remark: another data set of the same source

Row | Variant | effect of a mutation on the interaction
2 | F54A | disrupting interaction
